Reference: patent US20030194743A1 (DYAX, published 2003)
Primed or numbered codes have the meaning given here. No end group written: not given here. FITC′ = fluorescein label (fitc)

Columns and labels:
[1] = target: T1, B lymphocyte stimulator protein (BLyS) (UniProt Q9Y275 134-285, biotinylated (b-BLyS) in phage screening and phage ELISA; unlabeled in fluorescence anisotropy and column tests); test: phage ELISA on biotinylated BLyS
T1 construct: also called b-BLyS; biotinylated recombinant BLyS
T1 sequence (Q9Y275 134-285 limits assumed): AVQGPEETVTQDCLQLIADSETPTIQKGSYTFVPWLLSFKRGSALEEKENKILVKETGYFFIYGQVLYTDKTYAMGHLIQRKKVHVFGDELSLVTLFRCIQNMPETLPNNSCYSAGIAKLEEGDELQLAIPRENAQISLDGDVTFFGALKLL

[2] = target: T1, B lymphocyte stimulator protein (BLyS); test: not stated at this place (fluorescence anisotropy elsewhere); reference in indirect phage ELISA
[3] = target: T1, B lymphocyte stimulator protein (BLyS); test: fluorescence anisotropy
[4] = target: T1, B lymphocyte stimulator protein (BLyS); test: fluorescence anisotropy; remark: listed apart in the source

| Binder | ELISA signal [1] [OD630] | other results |
| --- | --- | --- |
| KEPCYFYWECAVS (also called TN7-01-A08) [453-01-A08] | 1.2 |  |
| AMKCYFPWECANG (also called TN7-01-D11) [453-01-D11] | 1 |  |
| KSKCFFPWECQQA (also called TN7-01-B04) [453-01-B04] | 0.8 |  |
| HVDCLLHPKACYKY (also called TN8-01-C08) [453-01-C08] | 1.2 |  |
| VPFCDLLTKHCFEA (also called TN8-01-B07) [453-01-B07] | 1.4 | Kd [2]: 700 nM |
| FHPCDMLTGIWCQPN (also called TN9-01-G06) [453-01-G06] | 1.2 |  |
| LNACDIVHPNYCSGM (also called TN9-01-011) [453-01-G11] | 0.8 |  |
| SRLCHMDELTHVCVHF (also called TN10-01-F05) [453-01-F05] | 1 |  |
| GGNCYTDSLTKLHFCMGD (also called TN12-01-H05) [453-01-H05] | 1 |  |
| GIYDKLTRAWLP (also called PhD-02-B02) [453-02-B02] | 0.6 |  |
| VHYDSLTKMWTR (also called PhD-02-B05) [453-02-B05] | 0.6 |  |
| GYDVLTKLYFVP (also called PhD-02-C12) [453-02-C12] | 0.8 |  |
| YFDQLTHLSIKK (also called PhD-02-D05) [453-02-D05] | 0.8 |  |
| WTDSLTGLWFPD (also called PhD-02-C04) [453-02-C04] | 1 |  |
| Ac-WTDSLTGLWFPDGGPGPEGGGK (also: fluorescein-labeled, site not given here, synthetic) [DX221] |  | Kd [3]: 3000 nM |
| Ac-WYDPLTKLWLGGK(FITC′) (synthetic) [DX876] |  | Kd [4]: 171 nM |
